Kd, koff and kon data for one variant are collected here from article PMC7545189, “Structural characterization of the ICOS/ICOS-L immune complex reveals high molecular mimicry by therapeutic antibodies” (Nature Communications, 2020).

A word on the Kd: it is a measure of binding affinity in units of concentration. For orientation: koff means the rate constant with which the complex falls apart. For orientation: kon means the rate constant with which the complex forms.

To fix the notation:
B1: human ICOS ectodomain (residues 21-138), untagged, disulfide-linked homodimer [human] / human ICOS-L ectodomain (residues 19-248), His-tagged, immobilised on Ni-NTA biosensors [human] (parent)
chain 1: EINGSANYEMFIFHNGGVQILCKYPDIVQQFKMQLLKGGQILCDLTKTKGSGNTVSIKSLKFCHSQLSNNSVSFFLYNLDHSHANYYFCNLSIFDPPPFKVTLTGGYLHIYESQLCCQ
chain 2: DTQEKEVRAMVGSDVELSCACPEGSRFDLNDVYVYWQTSESKTVVTYHIPQNSSLENVDSRYRNRALMSPAGMLRGDFSLRLFNVTPQDEQKFHCLVLSQSLGFQEVLSVEVTLHVAANFSVPVVSAPHSPSQDELTFTCTSINGYPRPNVYWINKTDNSLLDQALQNDTVFLNMRGLYDVVSVLRIARTPSVNIGCCIENVLLQQNLTVGSQTGNDIGERDKITENPVS

Variants of B1 are the subject of one test. Nature of the test: BLI. The note with it: with human ICOS-L ectodomain (residues 19-248), parent: 9.8 nM, read off a plot.
Regarding chain 1 N90Q, the Kd was 2.7 nM.

Still in this test, the particulars now being: with human ICOS-L ectodomain (residues 19-248), parent: 0.0033, read off a plot.
As for chain 1 N90Q, the koff was determined as 0.0021 s⁻¹.

The test is the same for the next values; noted with them: with human ICOS-L ectodomain (residues 19-248), parent: 3.3e+05, read off a plot.
Regarding chain 1 N90Q, the kon amounted to 730000 M⁻¹ s⁻¹.
